pKd: −log10 of the molar value.
Molecular target: rabbit reticulocyte lysate 60S ribosomal subunit, purified (rabbit) (UniProt G1SV32)
Assay: co-sedimentation

“recombinant full-length Ebp1 with a N-terminal histidine tag (Ebp1-His) (from UniProt P50580 1-394) (natural protein)” gave an Ebp1 concentration at saturated binding (100 nM 60S) of 200 nM and a pKd of 6.91.

— article doi:10.1101/2020.02.08.939488
